# Literature values, collected in paper PMC3050111.
# Read-outs that look alike come from different tables or passages of the source.
# Tests used:
# [1] = target: integrin αVβ3 (Homo sapiens) (UniProt P06756)
# [2] = target: integrin αVβ3 (Homo sapiens) (UniProt P06756); remark: listed apart in the source
# [3] = target: integrin αVβ3 (Homo sapiens) (UniProt P06756); remark: listed apart in the source
substance,measurement,setting,value
Tat (from UniProt P04326),Kd,[1],32 nM
fibrinogen (from UniProt P02671),Kd,[2],27 nM
vitronectin (from UniProt P04004),Kd,[3],64 nM
